The values that follow come from patent publication US6248875, “Neuronal MORT1 isoforms” (American Home Products Corporation, dated 2001).

For this assay, the target named is T1, SNF4-pACTII (unrelated fusion with Gal4 activation domain) (yeast, UniProt P12904).
T1 sequence: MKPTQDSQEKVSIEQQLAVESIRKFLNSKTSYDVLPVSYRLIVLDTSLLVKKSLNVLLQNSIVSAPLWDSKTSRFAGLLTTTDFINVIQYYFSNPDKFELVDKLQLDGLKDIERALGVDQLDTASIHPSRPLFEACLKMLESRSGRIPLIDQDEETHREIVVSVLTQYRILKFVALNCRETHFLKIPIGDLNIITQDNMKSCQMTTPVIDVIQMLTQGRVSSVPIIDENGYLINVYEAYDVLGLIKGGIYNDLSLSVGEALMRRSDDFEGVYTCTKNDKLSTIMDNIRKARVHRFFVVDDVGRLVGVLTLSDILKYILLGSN
Description: yeast two-hybrid, HIS3 reporter, strain YCB5.1. The procedure: Figure 1: FIG. 1: Investigation of the MORT1 transcript isoforms with MACHα1 C360S in a yeast two-hybrid system: Activation of the HIS3 reporter gene. Each MORT1 transcript isoforms was expressed as a fusion protein with Gal4 DNA binding domain. MACHα1 C360S was expressed as a fusion protein with the Gal4 activation domain. Yeast strains were plated at a cell density of 5 ×10^1, 5 ×10^2, 5 ×10^3, 5 ×10^4 and 5 ×10^5 (left to right within a plate. Sibling isolates from yeast strains expressing a MORT1 transcript isoform with MACHα1 C360S fusion proteins were plated on histidine deficient media containing 0, 20 or 40 mM 3-aminotriazole (3-AT). The top row of plates (1) contained yeast strains that express two fusion proteins as follows: YCB5: MORT1-pAS1/MACHα1 C360S-pACTII; YCB9: MORT1Δ21-pAS1/MACHα1 C360S-pACTII; YCB16: MORT1 G173A-pAS1/MACHα1 C360S-pACTII. The bottom row of plates (3) contains negative control strains which express only the MORT1 transcript isoform fusion protein with a recombinant vector containing nonrelated heterologous DNA, as follows: YCB5.1: MORT1-pAS1/SNF4-pACTII; YCB9.1: […]. […] Each MORT1 transcript isoforms was expressed as a fusion protein with Gal4 DNA binding domain. MACHα1 C360S was expressed as a fusion protein with the Gal4 activation domain. […]

B1: MORT1 fusion protein with Gal4 DNA binding domain (MORT1-pAS1) (other)
chain: MDPFLVLLHSVSSSLSSSELTELKFLCLGRVGKRKLERVQSGLDLFSMLLEQNDLEPGHTELLRELLASLRRHDLLRRVDDFEAGAAAGAAPGEEDLCAAFNVICDNVGKDWRRLARQLKVSDTKIDSIEDRYPRNLTERVRESLRIWKNTEKENATVAHLVGALRSCQMNLVADLVQEVQQARDLQNRSGAMSPMSWNSDASTSEAS
For the molecule B1, the binding result is “no binding”.
